Data set [1] is described as follows: SEC-MALS, oligomeric state in solution. The data set is classed as physicochemical. The note with it: for oligomeric state in solution / experimentally determined mass: SEC-MALS; for oligomeric state in solution: 10 mg/ml injected, pH 7.5, peak protein concentration estimated at least 50 μM; for experimentally determined mass: Superdex 75, 10 mg/ml injected, 150 mM NaCl, 20 mM HEPES (pH 7.5), 0.1 ml/min; for dissociation constant of dimer (if any): inferred from SEC-MALS, compared with decorin dimer 1.4 μM. On the procedure: Fibromodulin and chondroadherin samples at a concentration of 10 mg/ml were injected onto a Superdex 75 10/30 column (GE Healthcare) connected to a 1260 Infinity HPLC (Agilent Technologies). The running buffer was 150 mM NaCl, 20 mM HEPES (pH 7.5) and the flow rate was 0.1 ml/min. Light scattering and refractive index changes were monitored using in-line Wyatt Mini Dawn and Optilab T-rEX detectors (Wyatt Technology Corp). The data were analysed with the Wyatt ASTRA V software. Each N-linked glycosylation site was assumed to add 2 kDa of molecular mass. The extinction coefficients for fibromodulin and chondroadherin were calculated as 32,930 and 40,715 M^− 1 cm^− 1, respectively.

The nature of data set [2]: Affinity of untagged protein for Ni^2 + resin. The protocol:
For purification of His-tagged fibromodulin, the filtered serum-free cell culture supernatant was adjusted to a final concentration of 20 mM Na-HEPES (pH 7.5) and loaded onto a 5-ml HisTrap Excel column (GE Healthcare) using an Äkta Purifier (GE Healthcare). The column was washed with buffer A (20 mM HEPES pH 7.5, 150 mM NaCl, 2 mM CaCl2) and the protein was eluted with 500 mM imidazole in buffer A. To remove the His-tag, fractions containing protein were incubated overnight with recombinant His-tagged TEV protease (made in E. coli using an expression vector kindly provided by Stephen Curry) while dialysing against buffer A. The reaction mixture was passed over a 5-ml HisTrap Excel column, and the flow-through containing the untagged fibromodulin protein was collected. After concentration using a Vivaspin centrifugal device (Sartorius), the fibromodulin protein was further purified by size exclusion chromatography on a Superdex 75 10/300 GL column (GE Healthcare) using buffer A as the running buffer. The purified protein ran as a single broad band of ~ 55 kDa on reducing SDS-PAGE (calculated: 41.5 kDa + 4 N-linked glycans).
The natural affinity of chondroadherin for Ni^2 + affinity resin was used to purify the untagged protein. […]

The subject of a further data set is collagen III. The data set is described as follows: Chondroadherin binding to collagen III. The following applies: Collagen Toolkit III solid-phase assay. The protocol: (§1) Recombinant purified chondroadherin was biotinylated using biotin EZ-link reagent (ThermoFisher) and dialysed into TBS to remove excess biotinylation reagent. Collagen peptides from Toolkit II and III [57], [58] were coated on a 96-well plate at 10 μg/ml in 20 mM acetic acid overnight at 4 °C. […] The following incubations were conducted at room temperature. Plates were rinsed three times with TBS and blocked for 1 h with 5% BSA in TBS. After rinsing with TBS, plates were incubated with biotinylated chondroadherin at 10 μg/ml in TBST (TBS with 0.1% Tween-20) with 0.1% BSA for 1 h. Plates were washed three times with TBST, and incubated with streptavidin-HRP (Millipore) diluted 1:20,000 in TBST with 0.1% BSA for 1 h. Plates were washed five times with TBST, and the binding was detected with TMB substrate (ThermoFisher) and stopped with 2 M sulphuric acid. The absorbance was read at 450 nm.

Data set [3] concerns collagen II. The data set can be described thus: Chondroadherin binding to collagen II mapped with Toolkit II. The note with it: mapped with Toolkit II solid-phase assay; six of the nine triplets in II-26. The protocol: as §1
In another data set the test system is collagen I. The note with it: ref [11]; cited from earlier work. An excerpt:
(§2) Chondroadherin knockout mice present with ...

The test system of a further data set is integrin α2β1. The following applies: cited from earlier work. The source says:
One of the more distant homologues of fibromodulin is chondroadherin, a class IV SLRP found in cartilage and bone. Chondroadherin-deficient mice have thinner cortical bones and longer growth plate proliferation zones, as well as mechanically softer knee surface cartilage. […] These positions map to the α-helix in the C-terminal cap of chondroadherin. Glu316, the last residue of the α-helix, appears to be critical for integrin binding and may interact with the metal ion-dependent adhesion site of the integrin α2 I domain [45], [46].

For data set [4] the following is noted: C-terminal 14 residues; ref [15]; cited from earlier work. An excerpt:
The collagen-binding site on chondroadherin has not been mapped. […] These positions map to the α-helix in the C-terminal cap of chondroadherin. Glu316, the last residue of the α-helix, appears to be critical for integrin binding and may interact with the metal ion-dependent adhesion site of the integrin α2 I domain [45], [46].

Data set [5] relates to collagen II. The following applies: ref [13]; cited from earlier work. The source says:
One of the more distant homologues of fibromodulin is chondroadherin, a class IV SLRP found in cartilage and bone. Chondroadherin-deficient mice have thinner cortical bones and longer growth plate proliferation zones, as well as mechanically softer knee surface cartilage.

The conditions of data set [6]: not SEC-MALS of this work; ref [26], [32], [33]; cited from earlier work. An excerpt:
Fig. 3 Concave face interactions in SLRP crystal structures. For each structure, two orthogonal views are shown. […] The experimentally determined mass of fibromodulin was 56.7 kDa (calculated: 41.5 kDa + 4 N-linked glycans) and that of chondroadherin was 39.6 kDa (calculated: 38.6 kDa). In comparison, using the same SEC-MALS setup, we previously determined an experimental mass of 83.5 kDa for the glycosylated decorin core protein (calculated: 36.2 kDa + 4 N-linked glycans).

The subject of data set [7] is Collagen Toolkits II and III. The note with it: Toolkit peptides from collagens II and III; ref [9]; cited from earlier work.
Text: as §2

Another data set has as its system Lysyl oxidase. The following applies: very N-terminus of fibromodulin; ref [9]; cited from earlier work. The source says:
Previous studies with bacterially expressed fibromodulin fragments identified LRRs 5-7 and 11 (VI-VIII and XII in the numbering scheme used here) as important for collagen binding, [25]. Thus, the collagen binding site appears to be located in the C-terminal half of fibromodulin, potentially leaving the N-terminal half containing most of the surface-exposed aromatic residues free to interact with another partner.

Entries after “also recorded” stand apart in the source; their conditions may differ.

B1: chondroadherin: human chondroadherin, residues 23–359 of Uniprot O15335, untagged; vector-derived APLA sequence at the N-terminus (protein)
chain: APLACPQNCHCHSDLQHVICDKVGLQKIPKVSEKTKLLNLQRNNFPVLAANSFRAMPNLVSLHLQHCQIREVAAGAFRGLKQLIYLYLSHNDIRVLRAGAFDDLTELTYLYLDHNKVTELPRGLLSPLVNLFILQLNNNKIRELRAGAFQGAKDLRWLYLSENALSSLQPGALDDVENLAKFHVDRNQLSSYPSAALSKLRVVEELKLSHNPLKSIPDNAFQSFGRYLETLWLDNTNLEKFSDGAFLGVTTLKHVHLENNRLNQLPSNFPFDSLETLALTNNPWKCTCQLRGLRRWLEAKASRPDATCASPAKFKGQHIRDTDAFRSCKFPTKRSKKAGRH
As for B1, in data set [1], the “oligomeric state in solution” value is reported as “predominantly monomeric in solution; also recorded: neither fibromodulin nor chondroadherin forms a stable dimer in solution; also recorded: at best, very weak”; the experimentally determined mass is on record as 39.6 kDa; the “dissociation constant of dimer (if any)” value is “substantially higher than that of the decorin dimer”. The “affinity for Ni^2 + resin” value in [2] is “substantial affinity for Ni^2 + resin”. Moreover, the “binding to collagen III” value with collagen III was “not at all to collagen III”. Moreover, in the data set with collagen II [3], the “binding to collagen II” value is given as “binds to a unique sequence motif in collagen II”. Further, the “binding to collagen I” value in the data set with collagen I is “reported binding of chondroadherin to collagen I”. Besides, the “integrin α2β1 binding” value in the data set on integrin α2β1 (binding site in chondroadherin, ref [44]) was “residues 307–318 have been identified as a binding site for integrin α2β1”. In the data set with integrin α2β1 (ref [14]), the “interaction with integrin α2β1 (cell-matrix interactions)” value was “mediates cell-matrix interactions through binding to integrin α2β1”. Moreover, the heparan sulphate binding result in data set [4] was “bind heparan sulphate”. The “interaction with collagen II” value with collagen II [5] was “interacts with collagen II”.

B2: biglycan: class I SLRP core protein (protein, UniProt P21810 38-368, looked up)
Biglycan: DEEASGADTSGVLDPDSVTPTYSAMCPFGCHCHLRVVQCSDLGLKSVPKEISPDTTLLDLQNNDISELRKDDFKGLQHLYALVLVNNKISKIHEKAFSPLRKLQKLYISKNHLVEIPPNLPSSLVELRIHDNRIRKVPKGVFSGLRNMNCIEMGGNPLENSGFEPGAFDGLKLNYLRISEAKLTGIPKDLPETLNELHLDHNKIQAIELEDLLRYSKLYRLGLGHNQIRMIENGSLSFLPTLRELHLDNNKLARVPSGLPDLKLLQVVYLHSNNITKVGVNDFCPMGFGVKRAYYNGISLFNNPVPYWEVQPATFRCVTDRLAIQFGNYKK
With B2, in data set [6], the “oligomeric state in solution (literature)” value is “form stable dimers in solution”.

B3: fibromodulin: human fibromodulin residues 19–376 of UniProt Q06828, ten N-terminal tyrosines mutated to serine, natively glycosylated (protein)
chain: GALAQYEDDPHWWFHYLRSQQSTSSDPSDPSPSETSEPSPSGVDEGPASTSGSPSPPDPRDCPQECDCPPNFPTAMYCDNRNLKYLPFVPSRMKYVYFQNNQITSIQEGVFDNATGLLWIALHGNQITSDKVGRKVFSKLRHLERLYLDHNNLTRMPGPLPRSLRELHLDHNQISRVPNNALEGLENLTALYLQHNEIQEVGSSMRGLRSLILLDLSYNHLRKVPDGLPSALEQLYMEHNNVYTVPDSYFRGAPKLLYVRLSHNSLTNNGLASNTFNSSSLLELDLSYNQLQKIPPVNTNLENLYLQGNRINEFSISSFCTVVDVVNFSKLQVLRLDGNEIKRSAMPADAPLCLRLASLIEI
modifications: N-linked glycans at Asn127, Asn166, Asn201, Asn291; left off: His-tag, N-terminal, cleaved
notes: human fibromodulin residues 19–376 of UniProt Q06828, ten N-terminal tyrosines mutated to serine, natively glycosylated
B3: in data set [1], the “oligomeric state in solution” value is listed as “predominantly monomeric in solution; also recorded: neither fibromodulin nor chondroadherin forms a stable dimer in solution”, the experimentally determined mass came to 56.7 kDa and the “dissociation constant of dimer (if any)” value is “substantially higher than that of the decorin dimer”. Besides, the “affinity for Ni^2 + resin” value in data set [2] is “substantial affinity for Ni^2 + resin”. In data set [7], the “binding to Toolkit peptides” value was “bound several Toolkit peptides from both collagens II and III; also recorded: binds to KGHR-containing sites in Collagen Toolkits II and III”. Also, the “binding to lysyl oxidase” value in the data set on Lysyl oxidase is on record as “Lysyl oxidase has been shown to bind to the very N-terminus of fibromodulin”.

The values are drawn from publication PMC5618690, “Structural and functional analysis of two small leucine-rich repeat proteoglycans, fibromodulin and chondroadherin” (Matrix Biology, 2017).
